From the supplement of paper PMC12042874
± gives the uncertainty stated by the source.

Experiment: amyloid nucleation score (Sup35N fusion, yeast selection) (log enrichment); library NNK3; higher = more nucleation; inactive = no reads after selection
Procedure, shortened: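 Peptides of 20 random codons fused to Sup35N were expressed in psi-negative yeast, induced 24 hours with 100 μM copper sulfate, then grown 7 days at 30°C on medium lacking adenine and uracil. Input and output plasmid inserts were Illumina-sequenced. Nucleation score is the DiMSum log enrichment of output over input reads, centred on the mode score of non-aggregating sequences, excluding sequences with under 100 input reads. Random libraries had three technical output replicates.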

| Substance | amyloid nucleation score |
| --- | --- |
| NISVLIRCLWNFSEGKAFLA | inactive |
| NIVERGSDLRGLCKTFNDIA | inactive |
| NKAYCWTLYLGMINDCIRFY | inactive |
| NKKSSAMYCQGIFLTFILLV | inactive |
| NKLCYSSDLYWRVTDKDEHR | inactive |
| NKSRTYCSARRLHRGKFRLI | inactive |
| NLAMWMDSECLRVSN | inactive |
| NLAYTMRGTELICTYVSILP | inactive |
| NLCDVGRMLNCRRTSFGYMF | inactive |
| NLCRAI | 0.256 ± 0.36 |
| NLCVMPRTTGPLS | inactive |
| NLEEHIRCFKGDRDPYLFF | inactive |
| NLFMMHV | inactive |
| NLFYNEEDVLIQFVYQRTIW | inactive |
| NLGLQDFNCNWGFTYGGLTK | inactive |
| NLHTTEIKFSPLLWKISSTW | 0.313 ± 0.34 |
| NLKSWFFCIVHCIRLHASVN | inactive |
| NLLAMRLWQAQSMKRSLGFL | inactive |
| NLLKSTYSVIASCASLLDLV | inactive |
| NLNYWAFDYADKLIEHSCVR | inactive |
| NLPHIYRDHRRFWVGFSIMT | 1.12 ± 0.17 |
| NLRSS | inactive |
| NLSALMLLLQDRDRAISRPR | 0.919 ± 0.21 |

| Substance | amyloid nucleation score |
| --- | --- |
| NLSRLKRFYIANSR | inactive |
| NLTLVVHYISRQSISEHYLR | inactive |
| NLVRSDSVRFAYVKWGPMHG | inactive |
| NLVSVSRSYIKCVDRHRRTA | inactive |
| NMDSVV | inactive |
| NMETYLFANVMLFGKPGLLS | 1.01 ± 0.12 |
| NMHRNSSIRDRSVIRTWGMV | inactive |
| NMIKPSFFIIVVVNTQGFDA | 2.97 ± 0.063 |
| NMIWANEQE | inactive |
| NMMSGRSQSVINFVYVDFHP | -0.183 ± 0.66 |
| NMRCSIHARGSRHGVRDDTQ | inactive |
| NMRKLVCDMEIWMIFCAKSN | 0.505 ± 0.28 |
| NMSPGEP | inactive |
| NMTTGYGAMGFRVVEAWFGC | 1.13 ± 0.11 |
| NMVDCGISLV | inactive |
| NMVNAIFSAVGLQGFRLFPR | inactive |
| NMWWNGSETNCESRVFEIET | inactive |
| NNCRSLY | 0.927 ± 0.21 |
| NNCSQVHKTRD | inactive |
| NNCVGCPCFSYRS | 3.04 ± 0.072 |
| NNDYADLRWGKSVGKASGWG | inactive |
| NNFRVNVHIIALVPECYFRL | 2.44 ± 0.077 |
| NNGFGSWGV | inactive |

| Substance | amyloid nucleation score |
| --- | --- |
| NNLEFQFNWRLEVGFC | inactive |
| NNNFRKDSS | inactive |
| NNYVMA | -0.231 ± 1.1 |
| NPDLVFWFKYLWYDGSCQ | inactive |
| NPETASLNLIKMSMHVSSFV | inactive |
| NPLCTSYNQHPRGYHALTYN | inactive |
| NPRTRFILNLPVFPSYHEHP | inactive |
| NQALNILFYLNSSKSCVYPY | 2.47 ± 0.063 |
| NQARHRSSIRRCG | inactive |
| NQQWIP | inactive |
| NQVVAVG | inactive |
| NRCKLNVAGHLCANRTRRFR | inactive |
| NRCQKSVVYLSLVYYHGIGM | inactive |
| NRIMGVGLY | inactive |
| NRIVTVLMFCWLEG | inactive |
| NRLFTH | inactive |
| NRMNKSEDGTSKCFESDRWG | inactive |
| NRRIMVSSFRKVFLSGYGWF | inactive |
| NRSPLCLKC | inactive |
| NRVDIRLVKCYWSGDSGGVE | inactive |
| NRYLFLIGSA | inactive |
| NSFSLGNSLNPYKAAPRRML | inactive |
| NSFYNWSSEKKL | inactive |

| Substance | amyloid nucleation score |
| --- | --- |
| NSLVLTLLNLVGKSLHHFYN | inactive |
| NSNGCVQGQRFSWPWVGRLA | inactive |
| NSQRASCSSLTYRSELYGNS | inactive |
| NSVNMTRCRVYTCFAFCNW | 3.13 ± 0.07 |
| NSVQAWPMIELEQPLKSLVQ | inactive |
| NSVRYLTWVAFLVCLMAYML | inactive |
| NSYEEWSKWHFSNWSGFSGC | inactive |
| NSYKVLTYVFCQVRANTIYC | 2.04 ± 0.059 |
| NTCKRYGEVI | 2.2 ± 0.058 |
| NTEGCSSQICRN | inactive |
| NTIHITTWDELVQLAQCDNL | inactive |
| NTLDERDCRSKLFAFLLRPS | inactive |
| NTLGGRLLSLCARGMAIDCL | 0.625 ± 0.35 |
| NTNGMQDLSLCCRCYDTELR | inactive |
| NTPGYSELIVFGST | inactive |
| NTPNCYFVLRRVILMRLKLS | inactive |
| NTRLSRLKIVFPCL | inactive |
| NTSWLNSWATVITIWPYCAL | 0.724 ± 0.2 |
| NTVTHR | inactive |
| NTYRMMKGLSPVFMKMLCTP | inactive |
| NVADALS | inactive |
| NVALVRTGVIHWSYSVISRV | inactive |
| NVCAVNFAWSITIWRYNY | inactive |

| Substance | amyloid nucleation score |
| --- | --- |
| NVDGVVLDCLSSLDSEWGYV | inactive |
| NVFIHLFTILALGFHL | inactive |
| NVHVISVFGFYEVTLFNDEV | inactive |
| NVIMCLRCQY | 2.03 ± 0.1 |
| NVQSSGSRGAR | inactive |
| NVSYLGEVWYKFRLCVVCSR | 0.159 ± 0.27 |
| NVTDVMRNISMTQLMFYLFA | 1.74 ± 0.062 |
| NVYYSPFCWCMPDMFFDSIC | 2.88 ± 0.08 |
| NWAGLHIVKYRLPPHTHLWH | inactive |
| NWAGRLWLTV | inactive |
| NWGRKCLFSSWCLLYVDNGT | 0.555 ± 0.2 |
| NWGSYSMDMRSCSGINRRP | inactive |
| NWKKCYVHYISSADYALRRF | inactive |
| NWKLYWYNVSCL | 1.65 ± 0.067 |
| NWLLRYLYCRTNFGCCYR | -0.552 ± 0.7 |
| NWMDDWSYVVVSF | -1.13 ± 2.5 |
| NWSYRDGREPHYI | 1.15 ± 0.12 |
| NWTYTAENPG | inactive |
| NYDFWVQTISECCELEFVM | inactive |
| NYECNGWVGFVLTVPYGTIW | inactive |
| NYGTLMYTVL | inactive |
| NYHRDSDVLTIFVISCPFLR | inactive |
| NYILSHWELV | inactive |

| Substance | amyloid nucleation score |
| --- | --- |
| NYNCVVDNLSGKCMNEILGY | 1.09 ± 0.097 |
| NYPIA | inactive |
| NYRERS | inactive |
| NYWIHVNVAMRVNYYRFFMF | inactive |
| NYWSTQLSIFCCKDCATTSA | 2.42 ± 0.063 |
| PAMDII | inactive |
| PAVQGSKDAASSAERCACQR | inactive |
| PCECTNHLACDNIPMRYTE | inactive |
| PCICMVIQSGLDEYAYHVQR | inactive |
| PCMNGVASFWNCGIKIFGSF | inactive |
| PCPSEFDLSGRYRAAWVRCS | inactive |
| PCSSLHCYMWYYVGANCHNL | inactive |
| PDLDYFMIHA | inactive |
| PDSMNFTPDNHHVRNGYNNF | inactive |
| PECVVKSTN | inactive |
| PELRRLTMESYIRNFWSVLS | inactive |
| PFHGCPTHDCFNAGILALTV | inactive |
| PFRVLLQGIKDAPSKFIDSG | inactive |
| PFSFCHLLLSKISIGWRYSL | inactive |
| PGFLGVPTACPLVSYDAVYP | inactive |
| PGYSCIRDIQITR | inactive |
| PGYSHVRLVVSSPPLWTDLA | inactive |
| PHIGYCMW | inactive |

| Substance | amyloid nucleation score |
| --- | --- |
| PHRGACMARTLSEVFCRAGS | inactive |
| PIPTKLLVLKRQSTMHLDRF | inactive |
| PIRSNVAMIPDD | inactive |
| PKNLFISRLPL | inactive |
| PKVRMAPVNERNDFFSVILG | inactive |
| PLCIHLVVMKSKPATNFSGA | inactive |
| PLDQCPKVPSLVASLQSESR | inactive |
| PLEGTALRHMVSMYYLSCWT | inactive |
| PLGDARLTSRRDPPYRTTPL | 0.979 ± 0.17 |
| PLITVDY | -0.153 ± 0.7 |
| PLQDL | inactive |
| PLRKCAMCSWVSSGEGPTYP | 0.483 ± 0.24 |
| PLRKSGQPSYAMPTRHARCI | inactive |
| PLRRSMMRIPHATF | inactive |
| PLSLGFVIGHHVSIPGSSTD | inactive |
| PLTFT | inactive |
| PNCGFVCMKMCATTDLFVCV | inactive |
| PNMSIPLLCLCDNISDFHRF | 1.69 ± 0.12 |
| PNRQDYIVTYLGIPNFLSTW | inactive |
| PNRQTLFSSIRF | 0.092 ± 0.56 |
| PPFYMCFYLFVGLRNSMGWL | inactive |
| PPVLVNGLTLKWEGVYSVNY | 0.802 ± 0.21 |
